Results as given in the supplement of paper PMC10567573.

B1: FBXO3 (parent)
chain: HDPLWRRHCKKYWLISEEEKTQKN
B2: SPATS1 (parent)
chain: YPEQSKGFHKAGSMLPPVNFSIVP

Variants of: B1
Experiment: protein stability index of a GFP-peptide fusion (GPS, HEK-293T) (PSI 1-6); higher = more stable
Conditions: c terminus: a fixed tail appended
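Also: lentivirally expressed fusions sorted by FACS into six bins by GFP to DsRed ratio, PSI derived from sequencing read proportions per bin multiplied by bin number.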

Variant | protein stability index
HDPLWRRHCKKYWLICEEEKTQKN [S16C] | 2.99
HDPDWRRHCKKYWLISEEEKTQKN [L4D] | 4.6
HDPRWRRHCKKYWLISEEEKTQKN [L4R] | 2.33
HDPKWRRHCKKYWLISEEEKTQKN [L4K] | 2.95
HDPAWRRHCKKYWLISEEEKTQKN [L4A] | 2.92
HDPIWRRHCKKYWLISEEEKTQKN [L4I] | 2.93
HDPLWRRHCAKYWLISEEEKTQKN [K10A] | 2.91
HDPLWRRHCLKYWLISEEEKTQKN [K10L] | 2.34
HDPLWRRHCMKYWLISEEEKTQKN [K10M] | 2.28
HDPLWRRHCRKYWLISEEEKTQKN [K10R] | 3.06

Variants of: B2
Experiment: as above
Conditions: c terminus: a fixed tail appended

Variant | protein stability index
YPQQSKGFHKAGSMLPPVNFSIVP [E3Q] | 2.5
YPYQSKGFHKAGSMLPPVNFSIVP [E3Y] | 2.03
YPNQSKGFHKAGSMLPPVNFSIVP [E3N] | 2.39
YPLQSKGFHKAGSMLPPVNFSIVP [E3L] | 1.9
YPSQSKGFHKAGSMLPPVNFSIVP [E3S] | 2
YPMQSKGFHKAGSMLPPVNFSIVP [E3M] | 2.14
YPKQSKGFHKAGSMLPPVNFSIVP [E3K] | 1.8
YPHQSKGFHKAGSMLPPVNFSIVP [E3H] | 1.81
YPIQSKGFHKAGSMLPPVNFSIVP [E3I] | 2.12
YPWQSKGFHKAGSMLPPVNFSIVP [E3W] | 2.01
YPVQSKGFHKAGSMLPPVNFSIVP [E3V] | 1.76
YPGQSKGFHKAGSMLPPVNFSIVP [E3G] | 1.82
YPTQSKGFHKAGSMLPPVNFSIVP [E3T] | 2.02
YPCQSKGFHKAGSMLPPVNFSIVP [E3C] | 2.35
YPDQSKGFHKAGSMLPPVNFSIVP [E3D] | 2.24
YPRQSKGFHKAGSMLPPVNFSIVP [E3R] | 1.64
YPAQSKGFHKAGSMLPPVNFSIVP [E3A] | 1.78
YPPQSKGFHKAGSMLPPVNFSIVP [E3P] | 2.09
YPFQSKGFHKAGSMLPPVNFSIVP [E3F] | 2.11
YPETSKGFHKAGSMLPPVNFSIVP [Q4T] | 1.8
YPERSKGFHKAGSMLPPVNFSIVP [Q4R] | 1.79

Variant | protein stability index
YPENSKGFHKAGSMLPPVNFSIVP [Q4N] | 1.89
YPEWSKGFHKAGSMLPPVNFSIVP [Q4W] | 3.72
YPEASKGFHKAGSMLPPVNFSIVP [Q4A] | 3.18
YPEHSKGFHKAGSMLPPVNFSIVP [Q4H] | 2.29
YPEPSKGFHKAGSMLPPVNFSIVP [Q4P] | 2.16
YPEISKGFHKAGSMLPPVNFSIVP [Q4I] | 1.85
YPECSKGFHKAGSMLPPVNFSIVP [Q4C] | 1.8
YPEVSKGFHKAGSMLPPVNFSIVP [Q4V] | 2.43
YPEKSKGFHKAGSMLPPVNFSIVP [Q4K] | 1.77
YPEDSKGFHKAGSMLPPVNFSIVP [Q4D] | 2.71
YPESSKGFHKAGSMLPPVNFSIVP [Q4S] | 1.99
YPEMSKGFHKAGSMLPPVNFSIVP [Q4M] | 1.39
YPEYSKGFHKAGSMLPPVNFSIVP [Q4Y] | 2.56
YPEGSKGFHKAGSMLPPVNFSIVP [Q4G] | 1.89
YPELSKGFHKAGSMLPPVNFSIVP [Q4L] | 1.81
YPEESKGFHKAGSMLPPVNFSIVP [Q4E] | 3.03
YPEFSKGFHKAGSMLPPVNFSIVP [Q4F] | 3.4
YTEQSKGFHKAGSMLPPVNFSIVP [P2T] | 1.77
YREQSKGFHKAGSMLPPVNFSIVP [P2R] | 2.57
YCEQSKGFHKAGSMLPPVNFSIVP [P2C] | 1.62
YVEQSKGFHKAGSMLPPVNFSIVP [P2V] | 2.62

Variant | protein stability index
YYEQSKGFHKAGSMLPPVNFSIVP [P2Y] | 1.91
YAEQSKGFHKAGSMLPPVNFSIVP [P2A] | 1.85
YSEQSKGFHKAGSMLPPVNFSIVP [P2S] | 2.43
YMEQSKGFHKAGSMLPPVNFSIVP [P2M] | 2.48
YQEQSKGFHKAGSMLPPVNFSIVP [P2Q] | 2.51
YGEQSKGFHKAGSMLPPVNFSIVP [P2G] | 1.8
YKEQSKGFHKAGSMLPPVNFSIVP [P2K] | 2.87
YFEQSKGFHKAGSMLPPVNFSIVP [P2F] | 1.77
YLEQSKGFHKAGSMLPPVNFSIVP [P2L] | 2.29
YIEQSKGFHKAGSMLPPVNFSIVP [P2I] | 1.83
YWEQSKGFHKAGSMLPPVNFSIVP [P2W] | 1.45
YHEQSKGFHKAGSMLPPVNFSIVP [P2H] | 2.04
YNEQSKGFHKAGSMLPPVNFSIVP [P2N] | 2.47
YDEQSKGFHKAGSMLPPVNFSIVP [P2D] | 3.19
YEEQSKGFHKAGSMLPPVNFSIVP [P2E] | 3.33
SPEQSKGFHKAGSMLPPVNFSIVP [Y1S] | 3.36
RPEQSKGFHKAGSMLPPVNFSIVP [Y1R] | 3.04
MPEQSKGFHKAGSMLPPVNFSIVP [Y1M] | 2.97
TPEQSKGFHKAGSMLPPVNFSIVP [Y1T] | 3.22
KPEQSKGFHKAGSMLPPVNFSIVP [Y1K] | 3.38
PPEQSKGFHKAGSMLPPVNFSIVP [Y1P] | 3.33

Variant | protein stability index
LPEQSKGFHKAGSMLPPVNFSIVP [Y1L] | 2.66
NPEQSKGFHKAGSMLPPVNFSIVP [Y1N] | 3.52
IPEQSKGFHKAGSMLPPVNFSIVP [Y1I] | 2.77
HPEQSKGFHKAGSMLPPVNFSIVP [Y1H] | 3.18
WPEQSKGFHKAGSMLPPVNFSIVP [Y1W] | 2.69
APEQSKGFHKAGSMLPPVNFSIVP [Y1A] | 3.35
GPEQSKGFHKAGSMLPPVNFSIVP [Y1G] | 3.26
EPEQSKGFHKAGSMLPPVNFSIVP [Y1E] | 3.8
VPEQSKGFHKAGSMLPPVNFSIVP [Y1V] | 3.31
CPEQSKGFHKAGSMLPPVNFSIVP [Y1C] | 2.95
QPEQSKGFHKAGSMLPPVNFSIVP [Y1Q] | 3.43
FPEQSKGFHKAGSMLPPVNFSIVP [Y1F] | 2.03
DPEQSKGFHKAGSMLPPVNFSIVP [Y1D] | 3.82
YPEQGKGFHKAGSMLPPVNFSIVP [S5G] | 2.52
YPEQIKGFHKAGSMLPPVNFSIVP [S5I] | 2.2
YPEQCKGFHKAGSMLPPVNFSIVP [S5C] | 1.96
YPEQHKGFHKAGSMLPPVNFSIVP [S5H] | 2.1
YPEQAKGFHKAGSMLPPVNFSIVP [S5A] | 2.17
YPEQFKGFHKAGSMLPPVNFSIVP [S5F] | 2.3
YPEQEKGFHKAGSMLPPVNFSIVP [S5E] | 2.69
YPEQDKGFHKAGSMLPPVNFSIVP [S5D] | 2.74
